Experimental data published in US12497460B2, “Anti-MSR1 antibodies and methods of use thereof” (REGENERON PHARMACEUTICALS, INC., priority 2018, dated 2025).

Key:
[1] = test system: Msr1^hu/hu ApoE^−/− mice; test: In vivo LPS-induced cytokine production in serum; design: species or system mouse; settings: 24 hours before in vivo LPS
Procedure: To examine the anti-inflammatory effect of the anti-MSR1 antibody-steroid conjugates, an ex-vivo and in vivo LPS-induced inflammatory immune response model was performed.
Generation of a mouse inflammatory immune response model. Mice homozygously expressing human MSR1 extracellular domain in place of the mouse MSR1 extracellular domain and with a homozygous deletion of the ApoE gene were utilized (resulting mice referred to as Msr1^hu/hu ApoE^−/− mice).
(§1) Assay protocol for in vivo LPS-induced responses. In in vivo LPS challenge experiments, mice were intraperitoneally administered with 10 μL/g of decreasing concentrations of anti-MSR1 antibody-steroid conjugates (H1H21234N-N297Q-LP13) and isotype control steroid conjugate (Isotype control-N297Q-LP13) at 24 hours prior to in vivo LPS challenge. PBS and free steroid P4 were intraperitoneally injected at 2 hours prior to in vivo LPS challenge. At 0 hour time point, three large drops of blood (volume ˜ 100 μL) were collected from the maxillary vein of each mouse into serum gel separator tubes. The tubes were centrifuged at 2200-2500 rpm for 15 minutes, and the serum was collected into 96-well plates for subsequent measurement of cytokines. At 18 hours post in vivo LPS challenge, the peritoneal cells were obtained from periotenal cavity as aforementioned for subsequent flow cytometry analysis.

[2] = test system: Msr1^hu/hu ApoE^−/− mice; test: In vivo LPS-induced cytokine production in serum; design: species or system mouse; settings: i.p. dosing 24 hours before LPS challenge; 2 hours post LPS challenge
[3] = test system: Msr1^hu/hu ApoE^−/− mice, peritoneal macrophages; test: LPS-mediated expression of CD80 on peritoneal macrophages (flow cytometry); assay type: in vivo, mouse; settings: for LPS-mediated expression of CD80, pMΦ Cells: hMSR1+F4/80+CD11b+ peritoneal macrophages; for LPS-mediated expression of CD80, non-pMΦ Cells: hMSR1−F4/80−CD11b− cells
Procedure: Assay protocol for ex vivo LPS-induced responses. In ex vivo LPS challenge experiments, mice were intraperitoneally administered with 10 μL/g of anti-MSR1 antibody-steroid conjugates (H1H21234N-N297Q-LP13), isotype control steroid conjugate (Isotype control-LP13), unconjugated anti-MSR1 antibody (H1H21234N-N297Q) and isotype control antibodies at different time points (24, 48, and 72 hours) prior to harvesting the peritoneal cells from peritoneal cavity. […] All mice were sacrificed at 0 hour time point and peritoneal cells were obtained from the peritoneum by the peritoneal lavage technique. In brief, 5 mL of ice cold 1×PBS (ThermoFisher Scientific, Cat #20012027) containing 2% BSA (Gibco, Cat #A9576) and 0.6 mM EDTA (ThermoFisher Scientific, Cat #15575020) were injected into the peritoneal cavity using 27 g needle. […] The resuspended cells were plated at 500,000 cells per well in 24-well tissues culture plates and incubated with or without 10 ng/mL of LPS for 18 hours.
as §1
Analysis of expression of activation markers on peritoneal macrophages after LPS ex vivo challenge. Upon collection of supernatants for cytokine analysis, the plates were washed twice with 1×PBS w/o Ca^++/Mg2^++ (ThermoFisher Scientific, Cat #14190144), and the adherent peritoneal cells were harvested by addition of 250-300 μL of cold Macrophage Detachment Solution DXF (PromoCell, Cat #C41330) for 40 minutes. The detached cells were collected into 50-mL tubes and centrifuged at 350×g for 15 minutes. After two washes with 1×PBS supplemented with 2 mM EDTA, the cells were resuspended in Cell Staining Buffer (Biolegend, #420201) and plated at 1×10^6 cells per well in a 96-well V bottom plate. Cells were centrifuged and cell pellets were resuspended in 100 μL of LIVE/DEAD Blue Fluorescent Reactive Dye (Life Technologies, Cat #L34962) diluted at 1:600 in 1×PBS to determine cell viability. Cells were incubated at room temperature for 20 minutes in dark. After one wash with 1×PBS, cells were incubated in Cell Staining Buffer containing 10 μg/mL of purified rat anti-mouse CD16/CD32 Fc Block (Clone: 2.4G2; BD Biosciences, Cat #553142) for 10 minutes at 4° C. The cells were washed once and incubated in the appropriate antibody mixture diluted in Brilliant Stain Buffer (BD Biosciences, Cat #566345) for 30 minutes at 4° C. in dark. The cells were subsequently washed with 1×PBS, resuspended in Cell Staining Buffer and acquired on FACS LSRFortessa X-20 flow cytometer (Becton Dickinson). Data were analyzed using FlowJo (Tree Star).

[4] = target: T1, RAW264.7 cells (MSR1 positive) (Mus musculus, UniProt P30204); test: Flow cytometry binding to cell surface-expressed mouse MSR1; assay type: cell-based; settings: 10 μg/mL antibody
T1 construct: using MSR1 positive RAW264.7 cells (ATCC, Catalog #TIB-71); host or cells: RAW264.7
T1 sequence (P30204 1-458): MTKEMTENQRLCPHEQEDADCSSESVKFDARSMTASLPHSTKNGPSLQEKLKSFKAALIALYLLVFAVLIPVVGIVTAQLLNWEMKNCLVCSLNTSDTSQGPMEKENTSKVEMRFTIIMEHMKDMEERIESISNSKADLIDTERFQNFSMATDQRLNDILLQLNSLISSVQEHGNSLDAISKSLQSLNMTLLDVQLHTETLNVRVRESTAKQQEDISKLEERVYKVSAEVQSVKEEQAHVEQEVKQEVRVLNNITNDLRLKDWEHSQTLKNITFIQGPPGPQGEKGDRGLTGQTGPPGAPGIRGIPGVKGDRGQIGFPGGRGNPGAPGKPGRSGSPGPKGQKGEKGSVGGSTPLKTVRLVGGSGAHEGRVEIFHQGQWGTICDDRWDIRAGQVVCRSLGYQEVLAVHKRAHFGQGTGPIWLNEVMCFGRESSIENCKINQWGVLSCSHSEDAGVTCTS
Procedure: To block binding to Fc receptors, RAW264.7 cells were incubated for 30 minutes at 4° C. with 500 μg/mL mouse IgG (Jackson ImmunoResearch, Cat #015-000-003) diluted in staining buffer, while B16F10.9 cells remained in staining buffer. Following Fc receptor blocking, 10 μg/mL of anti-MSR1 antibodies or an isotype control antibody were added to the cells and were subsequently incubated for 30 minutes on ice. […] The signal to noise (S/N) was determined by calculating the ratio of the anti-MSR1 antibodies or the control antibodies MFI to the unstained sample MFI (Table 11).

Molecule | Cytokine IL-6 in serum ([1]; 10.67 mg/kg) [ng/mL] | Cytokine KC-GRO in serum ([1]; 10.67 mg/kg) [ng/mL] | Cytokine TNF-α in serum ([1]; 10.67 mg/kg) [ng/mL] | Cytokine IL-6 in serum ([1]; 32.03 mg/kg) [ng/mL] | Cytokine KC-GRO in serum ([1]; 32.03 mg/kg) [ng/mL] | Cytokine TNF-α in serum ([1]; 32.03 mg/kg) [ng/mL] | Cytokine IL-6 in serum ([1]; 96.08 mg/kg) [ng/mL] | Cytokine KC-GRO in serum ([1]; 96.08 mg/kg) [ng/mL] | Cytokine TNF-α in serum ([1]; 96.08 mg/kg) [ng/mL] | effect on in vivo LPS-induced cytokine production in serum [2] | LPS-mediated expression of CD80, pMΦ Cells ([3]; administered 24 hours before) | LPS-mediated expression of CD80, non-pMΦ Cells ([3]; administered 24 hours before) | LPS-mediated expression of CD80, pMΦ Cells ([3]; administered 48 hours before) | LPS-mediated expression of CD80, non-pMΦ Cells ([3]; administered 48 hours before) | LPS-mediated expression of CD80, pMΦ Cells ([3]; administered 72 hours before) | LPS-mediated expression of CD80, non-pMΦ Cells ([3]; administered 72 hours before) | LPS-mediated expression of CD80 on hMSR1^+F4/80^+CD11b^+ peritoneal macrophages (pMΦ) ([3]; in vivo administration) | RAW264.7 MFI [4] | RAW264.7 S/N [4] | signal to noise (S/N), MFI over unstained sample MFI [4]
H1H21234N-N297Q-LP13 (conjugate) VH: QVQLQESGPGLVKPSETLSLTCTVTGGSISRNYWSWIRQPPGKGLEWIGYIYYSGSIDYNPSLKSRVTISVDTSKNQFSLKLSSMTAADTAVYYCARDRWNWKYGMDVWGQGTTVIVSS VL: EIVLTQSPGTLSLSPGERATLSCRASQTVRNNYLAWYHQKPGQAPRLLIYGASSRATGIPDRFSGSGSGTDFTLTISRLEPEDFTVYYCHQYGNSPWTFGQGTKMEIKR | 33 ± 8.1 | 13.3 ± 1.2 | 0.51 ± 0.08 | 15.34 ± 5.2 | 10.6 ± 2.8 | 0.48 ± 0.18 | 7.7 ± 3.1 | 5.1 ± 1.5 | 0.42 ± 0.14 | efficacious in inhibiting in vivo LPS-induced cytokine production in a dose-dependent manner | 61.1 ± 1.3 % relative to PBS/LPS-treatment | 95.5 ± 2.6 % relative to PBS/LPS-treatment | 58.7 ± 4.2 % relative to PBS/LPS-treatment | 99 ± 1.8 % relative to PBS/LPS-treatment | 63.9 ± 1.01 % relative to PBS/LPS-treatment | 102.3 ± 0.14 % relative to PBS/LPS-treatment | significant reduction | – | – | –
H1H21227N-N297Q: "modified versions of 21227N (H1H21227N-N297Q and H1H21227N-N297D)"; anti-MSR1 antibody "with a N297Q single point mutation" (antibody, V domains shown) VH: QVQLVQSGAEVKKPGASVKVSCKVSGYTLTELSIHWVRQVPGKGLEWMGGFDPEEGETIFAQEFRDRVTLTEDTSPDTAYMELSSLKSEDAAVYYCTTPRYCNNGICYDYWGQGTLVTVSS VL: DIQMTQSPSSLSASVGDRVTITCRASQSISNYLNWYQQKPGKAPKLLIYTASSLQSGVPSRFSGSGSGTDFTLTISSLQTEDFATYYCQQSYSNFPITFGQGTRLEIKR | – | – | – | – | – | – | – | – | – | – | – | – | – | – | – | – | – | 12810 | 5 | 5
